Laboratory results: patent US20260347496 (published 2026)
Residue numbers refer to the chain shown, from its start. Where “and” joins values, the source holds several entries; their conditions need not be identical. Equal entries are not always repeated. Where two headings read alike, the source gives them in different places. Blank lines part the entries; values can stand above or below the binder they belong to.

How the values were obtained:
[1] = target: T1, CD24 (cell surface) (human); experiment: FACS, NALM6
T1 chain: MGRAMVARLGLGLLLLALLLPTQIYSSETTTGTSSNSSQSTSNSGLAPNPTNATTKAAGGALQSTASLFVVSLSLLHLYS

[2] = target: CD24(27-56aa)-GST NEOX-4 (human); experiment: ELISA
Sequence of CD24(27-56aa)-GST NEOX-4 (human) (chain, as listed by the source): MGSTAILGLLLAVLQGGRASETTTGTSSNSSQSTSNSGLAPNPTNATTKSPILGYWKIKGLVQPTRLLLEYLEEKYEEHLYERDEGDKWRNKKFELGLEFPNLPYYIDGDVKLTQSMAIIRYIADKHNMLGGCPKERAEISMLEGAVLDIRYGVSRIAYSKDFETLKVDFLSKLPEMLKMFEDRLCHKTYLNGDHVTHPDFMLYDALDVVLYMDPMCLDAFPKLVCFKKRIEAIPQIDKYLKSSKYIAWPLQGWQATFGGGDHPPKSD

[3] = target: T1, CD24 (cell surface); experiment: FACS, MDA-MB-468
[4] = target: T2, CD24 biotinylated (ACRO CD4-H82E9) (human, UniProt P25063); experiment: SPR
T2 chain: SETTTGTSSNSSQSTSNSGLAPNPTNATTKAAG

[5] = target: CD24(27-56aa)-GST NEOX-4 (human); experiment: ELISA; remark: listed apart in the source
[6] = target: CD24(27-56aa)-GST NEOX-4 (human); experiment: ELISA; remark: listed apart in the source
[7] = target: T2, CD24 biotinylated (ACRO CD4-H82E9); experiment: SPR

- EC50 [1]: 0.469 µg/mL and 0.217 µg/mL
B1: P6373 (antibody, V domains shown)
VH: EVKFEESGGGLVQPGGSIKLSCAASGVTFSEAWMDWVRQSPEKGLEWVAEIRDKPNSYVTYYAESVKGRFTISRDDSKSRVYLQMNNLRTEDTGIYYCTGAMDYWGQGTSVTVSS
VL: DIVMTQTPLSLSVTIGQPASISCKSSQSLLYSNGKTYLNWLQQRPGQSPKRLIYQVSKLDPGIPDRFSGSGSETDFTLKISRVEAEDLGIYYCMQGSSLPWTFGGGTKLEIKR

- EC50 [2]: 0.00443 µg/mL
- EC50 [3]: 1.21 µg/mL
- EC50 [1]: 0.348 µg/mL
B2: huG14-217 (antibody, V domains shown)
VH: EVQLVESGGGLVKPGGSLRLSCAASGLTFSNYWGNWVRQAPGKGLEWVALIRLYSDNYAIHYAESVKGRFTISRDDSKSTVYLQMNSLKTEDTAVYYCTTGTDYWGQGTTVTVSS
VL: DVVMTQSPLSLPVTPGRPASISCKSSHSLLYSNGRTYLNWLLQKPGQSPQRLIYLVSKLDSGVPDRFSGSGSGTDFTLKISRVEAEDLGVYYCIQGTYFPYTFGQGTKLEIK

- EC50 [2]: 0.00621 µg/mL
- EC50 [3]: 0.484 µg/mL
- EC50 [1]: 0.235 µg/mL
B3: huG14-232 (antibody, V domains shown)
VH: B2 VH with Y104N
VL: B2 VL with P12Y

- Kd [4]: 9.77 nM
B4: huG14-124-9 (antibody, V domains shown)
VH: B2 VH
VL: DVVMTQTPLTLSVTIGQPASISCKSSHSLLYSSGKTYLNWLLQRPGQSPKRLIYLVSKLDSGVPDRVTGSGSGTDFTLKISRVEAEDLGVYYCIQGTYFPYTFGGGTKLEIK

- Kd [4]: 2.08 nM
B5: huG14-124-1 (antibody, V domains shown)
VH: B2 VH
VL: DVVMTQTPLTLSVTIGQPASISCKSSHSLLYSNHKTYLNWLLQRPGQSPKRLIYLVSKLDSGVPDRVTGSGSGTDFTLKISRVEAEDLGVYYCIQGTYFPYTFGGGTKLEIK

- EC50 [5]: 0.00961 µg/mL
B6: huG14-102 (antibody, V domains shown)
VH: B2 VH with G34M
VL: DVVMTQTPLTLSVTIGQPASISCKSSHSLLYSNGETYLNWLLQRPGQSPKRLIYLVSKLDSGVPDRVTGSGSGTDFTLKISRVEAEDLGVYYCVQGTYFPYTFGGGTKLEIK

- EC50 [5]: 0.0183 µg/mL
B7: huG14-104 (antibody, V domains shown)
VH: B2 VH with G34M
VL: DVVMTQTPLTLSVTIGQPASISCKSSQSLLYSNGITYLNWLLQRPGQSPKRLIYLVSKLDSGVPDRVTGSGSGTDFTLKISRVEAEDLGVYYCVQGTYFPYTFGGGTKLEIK

- EC50 [3]: 0.684 µg/mL
- EC50 [1]: 0.443 µg/mL
- EC50 [6]: 0.00619 µg/mL
B8: huG14-125 (antibody, V domains shown)
VH: B2 VH
VL: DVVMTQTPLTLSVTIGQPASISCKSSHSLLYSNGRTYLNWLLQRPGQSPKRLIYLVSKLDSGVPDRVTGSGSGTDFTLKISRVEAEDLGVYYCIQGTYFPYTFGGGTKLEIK

- EC50 [2]: 0.00889 µg/mL
- EC50 [3]: 0.63 µg/mL
- EC50 [1]: 0.35 µg/mL
B9: huG14-230 (antibody, V domains shown)
VH: B2 VH with Y104N
VL: B2 VL with R35K

- EC50 [5]: 0.0153 µg/mL
B10: huG14-110 (antibody, V domains shown)
VH: B2 VH with G34M, Y104N
VL: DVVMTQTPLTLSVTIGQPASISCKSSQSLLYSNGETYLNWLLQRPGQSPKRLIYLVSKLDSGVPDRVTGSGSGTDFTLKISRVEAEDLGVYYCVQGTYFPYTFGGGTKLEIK

- Kd [4]: 1.52 nM
B11: huG14-124-3 (antibody, V domains shown)
VH: B2 VH
VL: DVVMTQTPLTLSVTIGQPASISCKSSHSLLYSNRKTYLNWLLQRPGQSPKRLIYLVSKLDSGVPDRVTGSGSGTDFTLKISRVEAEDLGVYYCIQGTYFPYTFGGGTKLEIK

- EC50 [5]: 0.0784 µg/mL
B12: huG14-108 (antibody, V domains shown)
VH: B2 VH with G34M
VL: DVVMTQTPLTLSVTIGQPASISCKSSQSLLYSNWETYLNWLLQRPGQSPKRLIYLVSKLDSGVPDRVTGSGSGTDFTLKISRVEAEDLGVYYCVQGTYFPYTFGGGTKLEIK

- EC50 [5]: 0.0157 µg/mL
B13: huG14-106 (antibody, V domains shown)
VH: B2 VH with G34M
VL: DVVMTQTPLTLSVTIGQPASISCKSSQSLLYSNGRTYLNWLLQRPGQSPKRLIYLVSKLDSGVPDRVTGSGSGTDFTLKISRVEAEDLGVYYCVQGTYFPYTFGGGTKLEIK

- EC50 [5]: 0.0325 µg/mL
B14: huG14-101 (antibody, V domains shown)
VH: B2 VH with G34M
VL: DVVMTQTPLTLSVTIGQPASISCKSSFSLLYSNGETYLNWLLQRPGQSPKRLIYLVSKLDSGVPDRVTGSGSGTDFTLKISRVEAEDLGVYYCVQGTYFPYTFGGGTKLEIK

- Kd [4]: 10.6 nM
B15: huG14-124-8 (antibody, V domains shown)
VH: B2 VH
VL: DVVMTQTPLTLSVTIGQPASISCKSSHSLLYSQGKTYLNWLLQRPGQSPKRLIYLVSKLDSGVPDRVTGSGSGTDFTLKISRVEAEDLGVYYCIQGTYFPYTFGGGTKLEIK

- EC50 [5]: 0.00813 µg/mL
B16: huG14-103 (antibody, V domains shown)
VH: B2 VH with G34M
VL: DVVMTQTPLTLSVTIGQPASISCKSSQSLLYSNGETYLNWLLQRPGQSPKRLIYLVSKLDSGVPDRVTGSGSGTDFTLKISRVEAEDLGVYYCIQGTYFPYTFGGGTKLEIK

- Kd [7]: 2.69 nM
- EC50 [3]: 0.184 µg/mL
- EC50 [1]: 0.184 µg/mL
B17: huG14-235 (antibody, V domains shown)
VH: B2 VH with Y104N
VL: B2 VL with P12Y, G34K

- EC50 [5]: 0.0293 µg/mL
B18: huG14-111 (antibody, V domains shown)
VH: B2 VH with G34M, Y104F
VL: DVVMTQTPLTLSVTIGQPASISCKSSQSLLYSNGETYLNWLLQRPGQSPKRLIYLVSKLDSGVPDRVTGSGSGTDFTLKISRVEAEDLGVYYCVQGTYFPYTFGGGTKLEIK

- Kd [4]: 1.07 nM
B19: huG14-124-7 (antibody, V domains shown)
VH: B2 VH
VL: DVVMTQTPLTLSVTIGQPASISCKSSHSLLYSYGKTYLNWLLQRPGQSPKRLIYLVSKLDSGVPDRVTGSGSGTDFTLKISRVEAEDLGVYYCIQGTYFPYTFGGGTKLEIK

- Kd [7]: 7.58 nM
- EC50 [3]: 0.256 µg/mL
- EC50 [1]: 0.256 µg/mL
B20: huG14-301 (antibody, V domains shown)
VH: B2 VH with Y104N
VL: B2 VL with P15L, R17Q, G34K, L42Q, K44R, Q50R

- Kd [4]: 2.54 nM
B21: huG14-124-6 (antibody, V domains shown)
VH: B2 VH
VL: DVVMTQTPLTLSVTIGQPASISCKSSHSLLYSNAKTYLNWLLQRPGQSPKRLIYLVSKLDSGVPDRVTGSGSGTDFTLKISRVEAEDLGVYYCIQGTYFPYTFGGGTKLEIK

- Kd [4]: 2.13 nM
B22: huG14-124-5 (antibody, V domains shown)
VH: B2 VH
VL: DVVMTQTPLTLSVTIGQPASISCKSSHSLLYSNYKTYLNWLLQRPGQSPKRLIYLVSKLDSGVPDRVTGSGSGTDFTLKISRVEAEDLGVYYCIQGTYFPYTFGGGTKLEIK

- EC50 [2]: 0.177 µg/mL
- EC50 [6]: 0.154 µg/mL
- EC50 [5]: 0.136 µg/mL and 0.128 µg/mL
B23: huG14-1 (antibody, V domains shown)
VH: B2 VH with G34M
VL: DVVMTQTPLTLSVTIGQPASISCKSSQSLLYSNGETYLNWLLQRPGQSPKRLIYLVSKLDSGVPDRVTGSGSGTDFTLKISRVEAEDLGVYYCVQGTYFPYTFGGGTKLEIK

- EC50 [2]: 0.0044 µg/mL
- EC50 [3]: 0.676 µg/mL
- EC50 [1]: 0.431 µg/mL
B24: huG14-216 (antibody, V domains shown)
VH: B2 VH
VL: B2 VL with R35K

- EC50 [3]: 0.57 µg/mL
- EC50 [1]: 0.391 µg/mL
B25: huG14-131 (antibody, V domains shown)
VH: B2 VH with G34M, Y104N
VL: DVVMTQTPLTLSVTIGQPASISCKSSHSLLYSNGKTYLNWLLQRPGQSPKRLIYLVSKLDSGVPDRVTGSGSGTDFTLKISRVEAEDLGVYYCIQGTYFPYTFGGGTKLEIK

- Kd [7]: 3.62 nM
- EC50 [3]: 0.305 µg/mL
- EC50 [1]: 0.305 µg/mL
B26: huG14-234 (antibody, V domains shown)
VH: B2 VH
VL: B2 VL with G34K, R35K

- Kd [4]: 1.58 nM
B27: huG14-124-2 (antibody, V domains shown)
VH: B2 VH
VL: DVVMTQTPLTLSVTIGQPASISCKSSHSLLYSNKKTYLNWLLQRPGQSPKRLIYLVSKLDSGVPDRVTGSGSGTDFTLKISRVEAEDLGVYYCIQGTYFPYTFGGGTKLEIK

- EC50 [3]: 0.827 µg/mL
- EC50 [1]: 0.609 µg/mL
- Kd [4]: 19 nM
- EC50 [6]: 0.00406 µg/mL
B28: huG14-124 (antibody, V domains shown)
VH: B2 VH
VL: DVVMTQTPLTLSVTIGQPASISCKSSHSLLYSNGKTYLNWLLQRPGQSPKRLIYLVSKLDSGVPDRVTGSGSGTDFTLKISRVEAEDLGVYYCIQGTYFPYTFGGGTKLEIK

- EC50 [5]: 0.0494 µg/mL
B29: huG14-107 (antibody, V domains shown)
VH: B2 VH with G34M
VL: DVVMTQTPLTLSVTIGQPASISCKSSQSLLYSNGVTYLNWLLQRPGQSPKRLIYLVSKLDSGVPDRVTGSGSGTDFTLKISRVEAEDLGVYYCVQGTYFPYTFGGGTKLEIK

- EC50 [2]: 0.0366 µg/mL
- Kd [7]: 12.1 nM
- EC50 [1]: 7.3 µg/mL and 18.5 µg/mL
- EC50 [6]: 0.031 µg/mL
- EC50 [5]: 0.0248 µg/mL and 0.00988 µg/mL
B30: G14 (antibody, V domains shown)
VH: EVKLEESGGGLVQPGGSMKLSCVASGLTFSNYWMNWVRQSPEKGLEWVALIRLYSDNYAIHYAESVKGRFTISRDDSKSSVYLQMNNLRAEDTGIYYCTTGTDYWGQGTTLTVSS
VL: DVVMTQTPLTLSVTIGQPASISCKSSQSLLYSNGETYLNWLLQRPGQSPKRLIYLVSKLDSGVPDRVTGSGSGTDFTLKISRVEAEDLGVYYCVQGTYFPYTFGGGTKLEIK
